Key:
[1] = molecular target: T1, MBP-FPARRM-His (three RRM domains of FPA) (Arabidopsis thaliana, UniProt Q8LPQ9 1-307); assay: EMSA; 2 nM probe, 600 nM protein; EMSA: 10 mM HEPES-KOH pH 7.3, 20 mM KCl, 1 mM MgCl2, 1 mM DTT, 5% glycerol, 0.1 ug/uL tRNA, room temperature 30 min (protein eluted with 200 mM imidazole); ITC: 10 mM HEPES-KOH pH 8.0, 150 mM NaCl, 200 mM imidazole, 25 C; details: protein: recombinant; tags: MBP (pMAL-c2x), 6xHis; label: Biotin at both ends
T1 sequence: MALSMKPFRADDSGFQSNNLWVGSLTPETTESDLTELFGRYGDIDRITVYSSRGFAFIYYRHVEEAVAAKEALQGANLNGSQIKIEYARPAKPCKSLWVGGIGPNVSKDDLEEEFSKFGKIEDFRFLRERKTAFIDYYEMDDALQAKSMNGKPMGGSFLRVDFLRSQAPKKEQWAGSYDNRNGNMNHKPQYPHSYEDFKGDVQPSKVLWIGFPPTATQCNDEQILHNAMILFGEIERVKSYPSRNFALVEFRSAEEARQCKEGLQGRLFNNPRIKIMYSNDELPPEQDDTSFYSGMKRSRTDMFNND

[2] = molecular target: T2, MBP-FCARRM-His (RRM domains of FCA) (UniProt O04425 1-343); assay: as above; details: protein: recombinant; tags: MBP (pMAL-c2x), 6xHis; label: Biotin at both ends
T2 sequence: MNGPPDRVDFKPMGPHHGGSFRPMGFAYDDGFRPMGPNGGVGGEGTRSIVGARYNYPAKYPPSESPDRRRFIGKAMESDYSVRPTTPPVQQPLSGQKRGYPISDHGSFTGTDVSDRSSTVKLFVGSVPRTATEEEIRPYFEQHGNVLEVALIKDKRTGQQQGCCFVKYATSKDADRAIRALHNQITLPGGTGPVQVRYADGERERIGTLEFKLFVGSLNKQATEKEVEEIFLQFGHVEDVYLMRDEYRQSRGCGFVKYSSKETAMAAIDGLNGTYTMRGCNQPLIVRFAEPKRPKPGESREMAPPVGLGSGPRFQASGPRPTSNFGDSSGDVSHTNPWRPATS

[3] = molecular target: T1, MBP-FPARRM-His (three RRM domains of …); assay: EMSA; 2 nM probe, 2000 nM protein; EMSA: 10 mM HEPES-KOH pH 7.3, 20 mM KCl, 1 mM MgCl2, 1 mM DTT, 5% glycerol, 0.1 ug/uL tRNA, room temperature 30 min (protein eluted with 200 mM imidazole); ITC: 10 mM HEPES-KOH pH 8.0, 150 mM NaCl, 200 mM imidazole, 25 C; details: protein: recombinant; tags: MBP (pMAL-c2x), 6xHis; label: Biotin at both ends
[4] = molecular target: T1, MBP-FPARRM-His (three RRM domains of …); assay: ITC; 25 C, 150 mM NaCl, pH 8.0; EMSA: 10 mM HEPES-KOH pH 7.3, 20 mM KCl, 1 mM MgCl2, 1 mM DTT, 5% glycerol, 0.1 ug/uL tRNA, room temperature 30 min (protein eluted with 200 mM imidazole); ITC: 10 mM HEPES-KOH pH 8.0, 150 mM NaCl, 200 mM imidazole, 25 C; details: protein: recombinant; tags: MBP (pMAL-c2x), 6xHis
[5] = molecular target: T2, MBP-FCARRM-His (RRM domains of FCA); assay: competition; unlabeled GU-rich competes labeled GU-rich probe; EMSA: 10 mM HEPES-KOH pH 7.3, 20 mM KCl, 1 mM MgCl2, 1 mM DTT, 5% glycerol, 0.1 ug/uL tRNA, room temperature 30 min (protein eluted with 200 mM imidazole); ITC: 10 mM HEPES-KOH pH 8.0, 150 mM NaCl, 200 mM imidazole, 25 C; details: protein: recombinant; tags: MBP (pMAL-c2x), 6xHis

B1: GU-rich probe (EMSA, biotin) (ssRNA)
RNA: GUUGUUUUGUUUGUUGUUUUGUUU
B1: no binding [1]; binds [2].

B2: UC-rich probe (antisense of GA-rich; EMSA, biotin) (ssRNA)
RNA: UUCUCUUCUUCUCUUCUUCUCUUC
B2: no binding [3].

B3: GA-rich RNA (unlabeled; ITC and competitor) (ssRNA)
RNA: GAAGAGAAGAAGAGAAGAAGAGAA
In the case of B3, the Kd [4] is reported as about 20 µM.

B4: GU-rich RNA (unlabeled; ITC and competitor) (ssRNA)
RNA: GUUGUUUUGUUUGUUGUUUUGUUU
B4: no binding [4]; binds [5].

— article PMC12591160, “Polyadenylation Complex CFII Recognizes Downstream Cis‐element for Pre‐mRNA Polyadenylation Through Interaction with an RNA‐Binding Protein in Arabidopsis”
